Molecular target: T1, human CD37 (human, UniProt P11049 1-281)
T1 sequence: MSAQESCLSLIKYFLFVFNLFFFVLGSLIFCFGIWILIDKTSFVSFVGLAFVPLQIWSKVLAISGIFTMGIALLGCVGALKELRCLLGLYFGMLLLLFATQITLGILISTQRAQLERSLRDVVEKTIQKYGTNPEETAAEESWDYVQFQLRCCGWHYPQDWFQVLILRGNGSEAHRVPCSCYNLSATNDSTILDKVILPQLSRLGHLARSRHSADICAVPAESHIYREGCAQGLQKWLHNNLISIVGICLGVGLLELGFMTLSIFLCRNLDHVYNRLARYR
Assay: cell-based or functional assay

B1: IMGN529 (naratuximab emtansine) (antibody, V domains shown)
VH: QVQVQESGPGLVAPSQTLSITCTVSGFSLTTSGVSWVRQPPGKGLEWLGVIWGDGSTNYHPSLKSRLSIKKDHSKSQVFLKLNSLTAADTATYYCAKGGYSLAHWGQGTLVTVSS
VL: DIQMTQSPSSLSVSVGERVTITCRASENIRSNLAWYQQKPGKSPKLLVNVATNLADGVPSRFSGSGSGTDYSLKINSLQPEDFGTYYCQHYWGTTWTFGQGTKLEIKR
modifications: maytansinoid DM1 linked through the SMCC linker; attachment residues and chain not stated
median IC50, cell proliferation (MTT assay, 72 hours), B cell lymphoma cell lines (n=46): 450 pM | median IC50, cell proliferation (MTT assay, 72 hours), T cell lymphoma cell lines (n=8): 22500 pM | median IC50, cell proliferation (MTT assay, 72 hours), fifty-four lymphoma cell lines: 790 pM

From patent publication US20200054763A1 (DEBIOPHARM INTERNATIONAL S A, published 2020)
